Results reported in patent US20070092518A1 (published 2007).
Changes are numbered by the printed parent chain.

B1: SEQ ID NO 112 (Fab, V domains shown)
VH: EVQLVESGGGLVQPGGSLRLSCRASGFTFSNHWMNWVRQAPGKGLEWIGEIRSKSIYSATHYAESVKGRFIISRDDNKTDLYLEMNSLKTEDTAEYYCARNYYGSTPDYWGQGTLVTVS
VL: EIVLTQSPDFQSVTPKEKVTITCRASQFVGSSIHWYQQKPDQSPKLLIKYASESMSGVPSRFSGSGSGTDFTFTISSLEAEDAATYYCQQSHSWPFTFGPGTKVDIK
notes: Fab, E. coli lysate
B2: SEQ ID NO 157 (Fab, V domains shown)
VH: B1 VH with V5T, F27S, T28I, H61S, K78G, D80S, Y82T, R100Q
VL: B1 VL
notes: Fab, E. coli lysate
B3: SEQ ID NO 127 (Fab, V domains shown)
VH: EVQLTESGGGLVQPGGSLRLSCAASQFIFSNHWMNWVRQAPGKGLEWIGEIRSKSSYGATSYAESVKGRFIISRDDNGNSLTLEMNSLKTEDTAEYYCARNYYGSTPDYWGQGTLVTVS
VL: B1 VL
notes: Fab, E. coli lysate
B4: SEQ ID NO 164 (Fab, V domains shown)
VH: B1 VH with V5T, R23A, F27S, T28I, W33Y, D76G, K78G, P107Y
VL: B1 VL
notes: Fab, E. coli lysate
B5: SEQ ID NO 155 (Fab, V domains shown)
VH: B3 VH with F27S, I28T, G58S, G78K, T82Y, P107Y
VL: B1 VL
notes: Fab, E. coli lysate
B6: SEQ ID NO 144 (Fab, V domains shown)
VH: B1 VH with F27S, T28I, W33Y, I56S, Y57N, H61S, D76G, T79N, R100Q, P107Y
VL: B1 VL
notes: Fab, E. coli lysate
B7: SEQ ID NO 148 (Fab, V domains shown)
VH: B3 VH with T5V, A23R, W33Y, S56I, D76G, S80D, T82Y, R100Q, P107Y
VL: B1 VL
notes: Fab, E. coli lysate
B8: SEQ ID NO 151 (Fab, V domains shown)
VH: B3 VH with T5V, W33Y, S56I, S61H, D76G
VL: B1 VL
notes: Fab, E. coli lysate
B9: SEQ ID NO 159 (Fab, V domains shown)
VH: B3 VH with T5V, Q26G, S56I, G58S, D76G, N79T, P107Y
VL: B1 VL
notes: Fab, E. coli lysate
B10: SEQ ID NO 138 (Fab, V domains shown)
VH: B1 VH with V5T, T28I, W33Y, I56S, Y57N, H61S, D76G, T79N
VL: B1 VL
notes: Fab, E. coli lysate
B11: SEQ ID NO 135 (Fab, V domains shown)
VH: B1 VH with R23A, G26Q, F27S, T28I, I56S, Y57N, H61S, D76G, R100Q, P107Y
VL: B1 VL
notes: Fab, E. coli lysate
B12: SEQ ID NO 132 (Fab, V domains shown)
VH: B3 VH with T5V, F27S, W33Y, S56I, G78K
VL: B1 VL
notes: Fab, E. coli lysate
B13: SEQ ID NO 167 (Fab, V domains shown)
VH: B1 VH with R23A, G26Q, I56S, S58G, Y82T, P107Y
VL: B1 VL
notes: Fab, E. coli lysate
B14: SEQ ID NO 118 (Fab, V domains shown)
VH: B1 VH with R23A, G26Q, Y57N, H61S, T79N, D80S
VL: B1 VL
notes: Fab, E. coli lysate
B15: SEQ ID NO 126 (Fab, V domains shown)
VH: B1 VH with F27S, W33Y, D76G, T79N, D80S, R100Q, P107Y
VL: B1 VL
notes: Fab, E. coli lysate
B16: SEQ ID NO 146 (Fab, V domains shown)
VH: B1 VH with R23A, T28I, Y57N, S58G, D76G, T79N, Y82T
VL: B1 VL
notes: Fab, E. coli lysate
B17: SEQ ID NO 115 (Fab, V domains shown)
VH: B1 VH with F27S, T28I, W33Y, Y57N, D76G, K78G, D80S, R100Q, P107Y
VL: B1 VL
notes: Fab, E. coli lysate
B18: SEQ ID NO 145 (Fab, V domains shown)
VH: B3 VH with A23R, F27S, I28T, W33Y, Y57N, S80D, T82Y, R100Q, P107Y
VL: B1 VL
notes: Fab, E. coli lysate
B19: SEQ ID NO 134 (Fab, V domains shown)
VH: B3 VH with Q26G, F27S, S56I, Y57N, S61H, D76G, N79T, T82Y
VL: B1 VL
notes: Fab, E. coli lysate
B20: SEQ ID NO 166 (Fab, V domains shown)
VH: B1 VH with R23A, G26Q, T28I, W33Y, Y57N, H61S, D76G, P107Y
VL: B1 VL
notes: Fab, E. coli lysate
B21: SEQ ID NO 158 (Fab, V domains shown)
VH: B1 VH with G26Q, T28I, S58G, T79N
VL: B1 VL
notes: Fab, E. coli lysate
B22: SEQ ID NO 150 (Fab, V domains shown)
VH: B1 VH with R23A, G26Q, W33Y, Y57N, S58G, H61S, K78G, P107Y
VL: B1 VL
notes: Fab, E. coli lysate
B23: SEQ ID NO 131 (Fab, V domains shown)
VH: B3 VH with I28T, W33Y, Y57N, G58S, D76G, N79T, R100Q, P107Y
VL: B1 VL
notes: Fab, E. coli lysate
B24: SEQ ID NO 156 (Fab, V domains shown)
VH: B3 VH with F27S, I28T, S56I, Y57N, G58S, G78K, S80D, P107Y
VL: B1 VL
notes: Fab, E. coli lysate
B25: SEQ ID NO 117 (Fab, V domains shown)
VH: B3 VH with I28T, Y57N, G58S, S61H, D76G, G78K, N79T
VL: B1 VL
notes: Fab, E. coli lysate
B26: SEQ ID NO 141 (Fab, V domains shown)
VH: B1 VH with R23A, F27S, S58G, H61S, D76G, T79N, D80S, P107Y
VL: B1 VL
notes: Fab, E. coli lysate
B27: SEQ ID NO 136 (Fab, V domains shown)
VH: B3 VH with F27S, S56I, G58S, S61H, N79T, T82Y, R100Q
VL: B1 VL
notes: Fab, E. coli lysate
B28: SEQ ID NO 165 (Fab, V domains shown)
VH: B1 VH with R23A, G26Q, W33Y, I56S, S58G, D76G, R100Q, P107Y
VL: B1 VL
notes: Fab, E. coli lysate
B29: SEQ ID NO 137 (Fab, V domains shown)
VH: B1 VH with R23A, F27S, W33Y, I56S, H61S, D76G, K78G, Y82T, R100Q, P107Y
VL: B1 VL
notes: Fab, E. coli lysate
B30: SEQ ID NO 140 (Fab, V domains shown)
VH: B1 VH with V5T, R23A, F27S, W33Y, I56S, Y57N, K78G, D80S, P107Y
VL: B1 VL
notes: Fab, E. coli lysate
B31: SEQ ID NO 162 (Fab, V domains shown)
VH: B3 VH with T5V, W33Y, G58S, S61H, D76G, G78K, S80D, P107Y
VL: B1 VL
notes: Fab, E. coli lysate
B32: SEQ ID NO 124 (Fab, V domains shown)
VH: B1 VH with R23A, G26Q, F27S, W33Y, I56S, Y57N, D76G, T79N
VL: B1 VL
notes: Fab, E. coli lysate
B33: SEQ ID NO 149 (Fab, V domains shown)
VH: B3 VH with A23R, W33Y, G58S, S61H, T82Y, R100Q, P107Y
VL: B1 VL
notes: Fab, E. coli lysate
B34: SEQ ID NO 161 (Fab, V domains shown)
VH: B1 VH with V5T, T28I, K78G, T79N, R100Q
VL: B1 VL
notes: Fab, E. coli lysate
B35: SEQ ID NO 123 (Fab, V domains shown)
VH: B3 VH with A23R, I28T, W33Y, S80D, T82Y, P107Y
VL: B1 VL
notes: Fab, E. coli lysate
B36: SEQ ID NO 163 (Fab, V domains shown)
VH: B1 VH with R23A, G26Q, T28I, Y82T, R100Q
VL: B1 VL
notes: Fab, E. coli lysate
B37: SEQ ID NO 130 (Fab, V domains shown)
VH: B1 VH with T28I, W33Y, K78G, T79N, D80S, R100Q, P107Y
VL: B1 VL
notes: Fab, E. coli lysate

molecular target: T1, human tumor necrosis factor-α (rHuTNF-alpha, Biosource) (human, UniProt P01375 77-233); test: solid-phase ELISA, Fab lysate on coated rHuTNF-alpha
T1 construct: Bought recombinant protein coated on ELISA plates; The TNFα of the Biacore assay is not described further; also called TNFα; human TNFα
T1 sequence (P01375 77-233 limits assumed): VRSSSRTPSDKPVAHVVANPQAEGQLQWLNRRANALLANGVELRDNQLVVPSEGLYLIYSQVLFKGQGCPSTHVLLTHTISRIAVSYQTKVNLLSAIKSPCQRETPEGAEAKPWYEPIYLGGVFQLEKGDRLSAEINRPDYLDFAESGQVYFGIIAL
Description: The Fab libraries were cloned into pTrcHis2A (Cat. No. V365-20, Invitrogen, Carlsbad, Calif.). Proteins were expressed in E. coli and solid-phase ELISA was used to assess Fab binding to human TNFα. Briefly, 96-well plates were coated overnight at 4° C. with 1 μg/ml of rHuTNF-alpha (Biosource, Camarillo, Calif.) in Carbonate-bicarbonate buffer, pH9.4. After washing in PBS with 0.05% (w/v) Tween-20, the wells were blocked with 1% (w/v) BSA in PBS for 1 hour at room temperature. After washing, plates were incubated with transformed E. coli cell lysate diluted in the assay buffer (1% BSA and 0.05% Tween-20 in 10 mM PBS) for 2 hours at room temperature. Various concentrations of infliximab (0.5, 1 and 2 ng/ml) were used as positive anti-Human Kappa Light Chain Biotin/anti-penta-His Biotin control. Plates were washed and incubated with ImmunoPure Goat Anti-Human Kappa Chain, Biotin Conjugated (Cat. No. 31780, Pierce Biotechnology, Rockford, Ill.) and Penta-His Biotin Conjugate (Cat. No. 34440, QIAGEN, Valencia, Calif.) diluted 1:2000 in the assay buffer for 1 hour at room temperature. Following another washing step, plates were probed for 1 hour at room temperature with 100 μL/well of Streptavidin POD (Cat. No. 1089153, Roche Applied Science, Indianapolis, Ind.) diluted 1:4000 in the assay buffer. Plates were further washed and then incubated with 3,3′,5,5′-tetramentylbenzidine (TMB, Cat. No. 34028, Pierce Biotechnology) for 30 minutes. Substrate development was stopped by addition of 100 μL/well TMB Stop Solution (Cat. No. 50-85-05, KPL, Gaithersburg, Md.) and the absorbance was measured at 450 nm via an automated plate spectrophotometer.

Binder	binding result
B1	binds
B2	binds
B3	binds
B4	binds
B5	binds
B6	binds
B7	binds
B8	binds
B9	binds
B10	binds
B11	binds
B12	binds
B13	binds
B14	binds
B15	binds
B16	binds
B17	binds
B18	binds
B19	binds

Binder	binding result
B20	binds
B21	binds
B22	binds
B23	binds
B24	binds
B25	binds
B26	binds
B27	binds
B28	binds
B29	binds
B30	binds
B31	binds
B32	binds
B33	binds
B34	binds
B35	binds
B36	binds
B37	binds
